Results on 22 sequences are retold here after the DeepSol protein solubility set.

This series in a line: soluble on expression in E. coli; label from the status in PepcDB or PDB records.
As to “MRSRERNRRPTLDELDRILTYFEQMRDRRRQEIDMLRVIVFALFSTRRQEEITRIRWDLLNESEQSALVTDMKNPGQKYGNDVWCHMPDEAWRVLQSMPKVADEVFPYNSRSVSASFTRACNFLEIEDLHFHDLRHDGVSRLFEMGWDIPKVASVSGHRDWNSMRRYTHLRGNGDPYAGWQWIERVISGPVIEAQVRVKRRAAGRAPLEHHHHHH”, the “soluble on expression in E. coli” value is “not soluble”.
As for “MRTALLQNLFSLFPFDLHGDCDVPPARDGIRVSCIINFYGRLNVLAGILWSLAQQDFPRSAFEVILVEDRGGSDEGRALAEEFSSRLPIVYAPLDKQYGLMGYSRNFGLERSRGEFILFLDDDTIILQDDFLKTMVAYFDAQPGVSAIMPHGEASFAFVDDRYDFHDPFFMTSRCTAYRRTVLASLGGFMSSFIGQEDVEFVIRFHAAGNRCAAVPQLAYRHPPLYVTNLGKPMAVGSSFYGIRKRYPLVTWLLAVVNCSRHLPLVLAPSRKYREMGRFGLGFLWGVLTAPFRSGSLNYRLEHHHHHH”, the “soluble on expression in E. coli” value is given as “not soluble”.
For “MRTILIDWFSDAVREYIFRNEAVHLAVSLVDRALPMFNINKMRFQLVGITSMRIAVKYEEIFPPILSNTRHSFDGAILYWKVRLHRRNAHTILDRIMLCTENELYKKDAECCQTPRAVADRFSFSTLPPI”, the “soluble on expression in E. coli” value is “not soluble”.
As to “MRTLKELERELQPRQHLWYFEYYTGNNVGLFMKMNRVIYSGQSDIQRIDIFENPDLGVVFALDGITMTTEKDEFMYHEMLAHVPMFLHPNPKKVLIIGGGDGGTLREVLKHDSVEKAILCEVDGLVIEAARKYLKQTSCGFDDPRAEIVIANGAEYVRKFKNEFDVIIIDSTDPTAGQGGHLFTEEFYQACYDALKEDGVFSAETEDPFYDIGWFKLAYRRISKVFPITRVYLGFMTTYPSGMWSYTFASKGIDPIKDFDPEKVRKFNKELKYYNEEVHVASFALPNFVKKELGLM”, the “soluble on expression in E. coli” value is on record as “soluble”.
Under “MRTLTIEPLTKDAFAPFGDVIETDGSDHFMINNGSTMRFHRLAEVDTAQPDDKAIISIFRAESLPMPLTIGMLERHPQGSQAFIPLLGNPFLIVVAPVGDAPESALTRAFVSNGRQGVNYHRGVWHHPVLTIEKQDDFLVVDRSGSGNNCDEHYFEENQRLVLDPNPQEGLEHHHHHH” stands “soluble”; under “MRTMPDAPALHLTAIDSHAHVFSRGLNLASQRRYAPNYDAPLGDYLGQLRAHGFSHGVLVQPSFLGTDNRYLLSALQTVPGQLRGVVMLERDVEQATLAEMARLGVRGVRLNLMGQDMPDLTGAQWRPLLERIGEQGWHVELHRQVADIPVLVRALQPYGLDIVIDHFGRPDARRGLGQPGFAELLTLSGRGKVWVKVSGIYRLQGSPEENLAFARQALCALEAHYGAERLMWGSDWPHTQHESEVSFGSAVEQFEALGCSAQLRQALLLDTARALFGFELEHHHHHH”, “soluble”.
Consider “MRTNVPDQQSTVQKLLDENSRLIDIIQEYLNQSRADEAIKHQQLLHRNLLHLSNLADPFLLSQLKDDGTAAAALPDPNQQQPQPGASGPPAPHLQQQQPQHSPQQGHPHPQQGLPAAHHRQQMMPPQAAPSPGGPMQPPHGFAPPPMGGGVPPEMMNHQAYQAQMRQQQQQPNGQAPPPVYPPFGQPAPQMSGQRMPYPYPPQGMPGYPGGPPPPPHGYEGYPPPGAQPGYMR”, for which the “soluble on expression in E. coli” value was “soluble”.
For “MRTQFINEQTMMIYFENEISESTFKKVQQTIQYIKSKNLSEITNMIPSYRAILIYFDNSGINGTELLENLELDENSNSRKQSHFKQRIIHIPVLYGGDFGPDLSEVANVNKLSQEEVIQIHTQQPYLIYMLGFMPGFPYLGGLDAKLHTPRRSEPRIKINAGSVGIANNQTGLYPMDSPGGWQIIGRTPIKVFDLNRTPMTLYEAGDYIQFYSINYQEFEKISNDINKGKFDIDKWVTYQDEYLEHHHHHH”, the “soluble on expression in E. coli” value is recorded as “not soluble”.
Under “MRVAIPAEDDRGIKSNVSKHFGRSRYFVFVDIEGEDVKNVEVVEVPFEEHGPGDLPNFIKDHGAKIVLTYGIGRRAIEYFNSLGISVVTGVYGRISDVIKAFIGGKLKIDYDWKEKIEKEH” stands “soluble”; under “MRVLATAADLEKLINENKGRLIVVDFFAQWCGPCRNIAPKVEALAKEIPEVEFAKVDVDQNEEAAAKYSVTAMPTFVFIKDGKEVDRFSGANETKLRETITRHK”, “soluble”.
With “MRVYKPEDVPNVQLADSTRLVTDEAGLLSNAQEEVMNGRLRAIRSSHAVEFAVVTLPSIGDAPLEDFTLKLARQWGVGNEKNNNGLLLVLVLDQRRVRFETGYGLEGYLPDGLLSRIIHDRMIPHFRSGNYAEGLSEGVLAVQQVLDGSLEHHHHHH”, the “soluble on expression in E. coli” value is “soluble”.
For “MRYAIMVTGPAYGTQQASSALQFAHALLNEGHELASVFFYREGVYNANLLTSPASDEYDLVRVWQKLNTQHGVALNICVAAALRRGIIDETEAGRLELPSANLQPGFTLSGLGALAEASLTCDRVVQF”, the “soluble on expression in E. coli” value was “soluble”.
Under “MRYDVVVVGSGVAGPIVARNVAKAGFSVLLVDKKPAIGAPKQCAEGLTINAFKQFDIPYDKRFINREIYGAKIYSPSGYTAELRYKEVSGVILERKVFDKMLAYYAAKAGAEVLARTEVVDVIRREGKIVGVKAKHEGEPMEIEAKVIVAADGVESTIARKAGIDTYAPPHEFDSGYEYEMIIEGFDPDLIHLFFGNEVAPRGYVWVFPKDEDRANVGIGINSDNEKTAKYYLDKWLKENNIPRNKILEVNVGLIPVGGFVKELVKENVLVVGDAARQVNPIHGGGMAEAMKASTIASKWIIKALEEENLELLKNYKEEWWKTEGPRMEKLLRLRRAMEKLTDEDLDVFVQLVSGTDLEKIAGGNYIEVVKALMKHPKVLMSRRRLEILKALLLEHHHHHH” stands “soluble”; under “MRYNQSDNKPFEEVLEASLSRRSILKGGLGISAMTAFGAFGLAGCNSSSSGTSASNGSGVSKAVLNFDSIPGSLTDAVSIPQGYTAQVLVPWGTPLNAQGSAWKNDGSNTSSDQLNALGMHHDGMHFFPLNDSTTDGLLCINHEYIDTSALHPNGPTVANGVRTIVDEVRKEINAHGVSVVRIQLEDNMWKLADTDPLNRRYTGATVMDLSGPVAHTALTVTRFSPDGSQARGTLNNCGNGYTPWGTYLTCEENWPGYFVNAGTRTEEQDRIGVDDKSTRYLWETLAGNSEERLDEFTRFNVAPTGTSSADDYRNEANGHGYIVEIDPYTQNSRAKKRTALGRFRHEGCAFGKLEAGKPVVFYSGHDSRFEYLYKFESAAAWDPADANPANRLATGDKYMDEGTLYVARFNEDSTGTWLPLTLDSVTTSGGTLADHFNSLAEIIINTAGAADLVGATPMDRPEWCSVDPFTGSVYLTLTNNTRRTDETNPANPRLNNKFGHVIRWDEGTSATDFTWDIFVFGSPANGDADTNRSGLNELNQFASPDGLAFDGRGILWIQTDNGADEVTSYTNDQMLAVVPSKLTNENGAQAVIGADNQAELKRFFVGPNGCEVTGFTISPDYKSLFVNIQHPGNWPYSDDAAQETPAGTTVRPRAATVVIRREDGGEIAVLEHHHHHH”, “soluble”; under “MRYVIAVKSPIYGKQGAFLAYQFAESLIKKEHEISQIFFFQDGVSNGNALVYPANDEVNLQKHWQMFSITYNVPLHLCVAASQRRGVVDNLTTPTTAHYNLAEGFTIAGLGEFIAASLNADRVITL”, “soluble”.
Regarding “MSACAPVHRDPPAPASLRAMPGARWLSGVVLGGLSLGLMACGPKDIEGLRTADYLGGDQRSGVLTYRETPPMGGPYNPLWQTCAAYAQPVYNEYAVHSLARGAVWVTYRPGLDAAELDKLKALLAGQPAALLSPYPNLPAPVVMTAWNRQLSAQTADDPRLTRFLKEILPENSAPEKGSPCARGFGGTR”, the “soluble on expression in E. coli” value is recorded as “soluble”.
In the case of “MSAEQFVGRWKLVESENFEDYLKEVGVGLLLRKAACAAKPTLEIKVNGNKWHVNQLSTFKNTTLEFTLGVEFDETTPDGRQFKSTITIEDGKVVHVQKRIKDSDHDSVITRWFEGEKLITTLQSGSVISRRAYIRE”, the “soluble on expression in E. coli” value is reported as “not soluble”.
For the sequence “MSAEVLVYRGSLVENRHRVSLALWGPEGLVAYAGDPGRVAYLRSSAKPFQALALYLTGAVERFGLTEEEVALATASHDGTPRHVEVAARFLGKLGLGPEHLVCGVHPPFSREARAALEAQGLAPTPLHHNCSGKHAGMLAAALALGAPAEGYHLPDHPVQRLNLATLEALSGARPGLATDGCSVPTFALSLARAARAFFLLADPGRAPEAYRTPLLRVREAMRRHPDLVAGPGSVDTLLMERLPVVAKRGADGYYGLALLEGPRGPLGVALKVEDGATLAREVAVVALLRALGLDPGKTPWDRPPVRNHRGLEVGHLEARLGLVWV”, the “soluble on expression in E. coli” value is “soluble”.
“MSAHDRKEPAQRCPAALAAERLQIGLEHCGISADVHQGYGVSLVSVWTNLVVWTDGLAYRWWTGKISAKTGRRLYRVYAVDNPITVAHCVAQRYEELRKASHHSRGVVERTS”: the “soluble on expression in E. coli” value is on record as “not soluble”.
Turning to “MSAKIYRPAKTAMQSGTAKTNVWVLEFDAEVPRKIDPIMGYTSSSDMKQQVKLTFETQEQAEAYAQRKGIEYRVILPKEATRKVVSYTDNFRFNRTQPWTHLEHHHHHH”, the “soluble on expression in E. coli” value is “soluble”.
Take “MSALRHIAVIDIGKTNAKVALVDLATSSEVALRRMANAPVRQAPYPHHDVESLWTFILDSLAGLNCEQRIDAISITTHGATGALVDASGELVLPVLDYEFDGPNGLAADYDAIRPPFAETGTPRLPLGLNLGAQFFWQQKRFPAAFAHATAILMYPQYWALRLTGVAANEVTSLGCHTDLWNPWTAGFSSLVDRLDWRGLMAPVRPARNRLGPILPALAARTGLDARTPVFCGLHDSNASLLPHLLSDAPPFSVVSTGTWVVSMAVGGREIALDAARDTLVNVNALGDPLPSARFMGGREFSVLTEGQPETWSEDDIGAVLARKTLLLPSTQQGSGPFPHQAATWLDAESINDGQRFAAVSFYLALMTATCLDLIGADGPTTVEGPFARNQLFVGMLAASTGRAVVASEATTGTSIGAALLASDQVMAYGKGERIEPPTDRAWADYANAWRVAVEARGLEHHHHHH”: the “soluble on expression in E. coli” value is listed as “not soluble”.
Under “MSANKELQQGYSDYSAASDQAALLNRLITAMQKGELTDELLEHIPELGDAKKLNDKLKYRKSILEKSIAEQAAKNKKNGVKATSTSSPSSSTSAPAEKKAKKDGKTGGAPPKQAKKVDYVTVEDYGSSIFGRLQSLFKKAIEDAFPGLDVPLLLAETPNPQFGDYQCNSAMPIAAKLKANKINKRPGDVAKEIQAKLPTKIDFVEKIDVMPAGFINIFLNTDYLRRQISLLASEGVKLPKLTRKRVLVDFSSPNIAKEMHVGHLRSTIIGDSICRLFEAVGFDVLRVNHIGDWGTQFGMLIAHLYDRFPDFLKKLPDISDLQAFYKESKKRFDEDEQFKKRAYEYVVKLQSHDGDIVKAWNTICDVSKKYNQIVYNYLDIKIKDVGESFYQDKMIELVKWVKTNKPDMLREEDGRQIMFPTGCDIPLTVVKSDGGFTYDTSDLAALKYRMLEEKCDWNIYVVDSGQSLHLETVYAAGRDFGWYDESIQRVEHVAFGLVLGDDKKKFKTRSGETVRLLDLLSEGVKRATEKLIEKGRETAMSEEQLVAARDAVAFGCVKYADLSHTRTQDYVFSFDRMLEDRGNTAVYLLYAYTRIQSIFEKDEVKNVDLVKYIASTPTLPLDHPGEFKLAKQLLKLSDCVLLVLDSLMLHQMCDYVYQLATLFHDFYNECYVIENKEGEKPFVHMHRLALCDVTRKVMSTCFKILGLREVNKM” stands “not soluble”.
